Test results as given in article PMC10925001 (2024).

Biological target: covalently-linked IL-2/SD-01 complex (human, UniProt P60568 21-153)
Experiment: SPR

koff: 0.0048 s⁻¹
B1: his-tagged human IL-2Rα (receptor)
chain: ELCDDDPPEIPHATFKAMAYKEGTMLNCECKRGFRRIKSGSLYMLCTGNSSHSSWDNQCQCTSSATRNTTKQVTPQPEEQKERKTTEMQSPMQPVDQASLPGHCREPPPWENEATERIYHFVVGQMVYYQCVQGYRALHRGPAESVCKMTHGKTRWTQPQLICTGEMETSQFPGEEKPQASPEGRPESETSCLVTTTDFQIQTEMAATMETSIFTTEYQ
